Data reported in patent publication US20020082202A1 (GlaxoSmithKline, published 2002).
No end group written: not given here.

Molecular target: T1, HFGAN72 receptor (human, UniProt O43613 1-425)
T1 sequence (looked up): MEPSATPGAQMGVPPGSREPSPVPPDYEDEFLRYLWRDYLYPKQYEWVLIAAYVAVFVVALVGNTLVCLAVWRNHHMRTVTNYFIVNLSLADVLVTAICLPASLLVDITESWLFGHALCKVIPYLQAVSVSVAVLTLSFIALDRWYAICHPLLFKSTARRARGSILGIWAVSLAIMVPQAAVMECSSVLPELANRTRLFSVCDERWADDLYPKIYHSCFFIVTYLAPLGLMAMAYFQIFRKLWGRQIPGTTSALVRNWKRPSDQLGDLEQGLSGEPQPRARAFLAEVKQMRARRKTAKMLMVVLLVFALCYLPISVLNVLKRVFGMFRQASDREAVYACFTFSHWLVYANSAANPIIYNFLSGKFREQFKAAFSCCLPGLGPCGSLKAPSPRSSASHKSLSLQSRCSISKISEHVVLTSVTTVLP
Test: cell-based or functional assay

Binder: QPLPDCCRQKTCSCRLYELLHGAGNHAAGILTL (cysteine pairing not given here; also: N-terminus blocked) [Lig 72A (HFGAN72 receptor ligand)]
- Intracellular calcium levels in Fura-loaded 293 cells transfected with the receptor; EC50: ~0.05 µg/mL
